Results on 1 protein are retold here after PMC12405362.

Substrate in this data set: O=C(/C=C/c1ccc(O)c(O)c1)O[C@@H]1C[C@](O)(C(=O)O)C[C@@H](O)[C@H]1O
The experiment in a line: purified protein. The conditions noted are these: tri-buffer (0.1 M acetic acid, 0.1 M Tris, 20 mM MES) pH 6, 30°C, 15 min, hydrolysis.

B1: CiCQE3 (Cichorium intybus) (protein)
chain: CYPSIISFGDSLADTGNVKEMASKSNVHAPHFLFPPYGETFFNKPTGRCSNGRLIIDFVAESLGLPLIPPSLGSKTNVHVTGLGQGVNYAVAGATALDSSFHEERGVEIWTNASLGVQLGWFKDSLSSICSSVADCRQLIGQSLVLMGEIGGNDYNHALVAGKSIDEVETYVPFVINTIVSAVNELIELGAETLVIPGNLPIGCSAAYLTIFYGSSEVQYDNSTGCIITLNKLAEYHNEFLQKKLHQIRELHPDVNIIYADYYNAAMQFFRSPNKYGFTNGALKACCGGGGPFNYNPSIDCADPASTSCAQPDTYVNWDGLHLTEAAYRVIFKSIFEGSYTTPRFNALCPTSMLQGVGGFSSSI
The Km is the substrate concentration at which the rate is half of its maximum. A word on the kcat: it is the maximal rate divided by the concentration of active sites. B1: the Km was determined as 1.740 mM and the catalytic constant (kcat) came out at 0.466 s⁻¹.
